Experimental data from the supplement of paper PMC10724198.
± gives the standard deviation of the averaged measurements.

These sequences were tested on Saccharomyces cerevisiae (assay: protein stability index of tFT-peptide fusion (C-terminal peptide) (PSI (0-1 scale)); higher = more stable (slower turnover)). Details: genetic background: wild type; temperature: 37 C.
Description: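 MPS profiling in S. cerevisiae of the tFT-X12 degron library: putative degron peptides plus stable controls, 12 aa, fused to the C-terminus of a sfGFP-mCherry timer. Cells are FACS-sorted into 8 mCherry/sfGFP bins and deep-sequenced. PSI runs from 0 (unstable) to 1 (stable). Backgrounds are wild type, das1Δ and doa10Δ at 30 °C, and wild type, das1Δ, cdc34-1 and cdc53-1 at 37 °C; 2-3 technical replicates each.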
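Also: PSI is a weighted mean of sequencing reads over stability bins, variants kept only with over 10 reads, mCherry proximal and sfGFP distal, peptide attached via GGGS linker.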

Sequence	protein stability index
HINRTIWARYQV	0.429 ± 0.032
HLGNTMIKKLIG	0.6202 ± 0.0029
HLYPFPSLHFAF	0.753 ± 0.019
HNQDKNVKYKIG	0.536 ± 0.0064
HRDVISVVRNMS	0.576 ± 0.012
HRHCVSSYQKVS	0.556 ± 0.01
HRNILSIIIKNL	0.1025 ± 0.00088
ICTHPCLRLRLN	0.144 ± 0.055
IDLISRVTVVAR	0.441 ± 0.01
IDLVAFCTIFAL	0.469 ± 0.018
IERGLMLTLCVH	0.171 ± 0.0059
IERLRLRTRIIC	0.13441 ± 5e-06
IFIVLDFRCVSS	0.381 ± 0.046
IFLLFPFSWRIF	0.539 ± 0.036
IFLLLRRIIALS	0.0499 ± 0.018
IFPSRSLLAASA	0.48 ± 0.028
IFSFRWVLPFWL	0.424 ± 0.0043
IHCLSIVVHGLS	0.563 ± 0.027
IHIFIIFRVQWK	0.249 ± 0.03
IHRSPLTLPLLV	0.5383 ± 0.0043
IIFCVRVVGGDL	0.5288 ± 0.0041
IIIRVTILCEQF	0.212 ± 0.011
IILAIRLLVDTL	0.238 ± 0.026
IILRPQYVHYFL	0.5457 ± 0.00084
IIVLNIGSVIFC	0.549 ± 0.028
IKSLLGCWHKHY	0.574 ± 0.04

Sequence	protein stability index
ILCVEFFVSVSV	0.23 ± 0.021
ILFVCVCVLHVG	0.252 ± 0.021
INKRDARIHLLM	0.547 ± 0.0084
IPHLNCCCCLVR	0.5503 ± 0.0019
IRDGPWKRVLVV	0.245 ± 0.0076
IRVLACFLFAVS	0.247 ± 0.025
IVFGWGVEWGRL	0.783 ± 0.017
IVLCVFTVDSDF	0.5126 ± 0.0039
IVSFRLDLSLAV	0.5467 ± 0.0024
IVWVSSFVCRSV	0.516 ± 0.025
IWVVIISDSRVG	0.4636 ± 0.0027
IWVWMLSVWLGG	0.407 ± 0.018
IYFFVLRLRLCG	0.253 ± 0.0032
KIHILVVQIATR	0.114 ± 0.0046
KKNITRLKNKMT	0.392 ± 0.086
KLLISLTWFCVL	0.3344 ± 0.00067
KLRMGRYIVRII	0.242 ± 0.012
KVFWRPAWVAEV	0.512 ± 0.013
LAVFSSPELSFP	0.777 ± 0.0036
LCFTSVFTLFIC	0.0756 ± 0.015
LCLLPVCLWDVG	0.49 ± 0.0072
LCSCAVVICCSL	0.441 ± 0.019
LCSVWVGIVLLC	0.107 ± 0.019
LDLSSLRCRYLL	0.427 ± 0.0081
LDTTSRSRAKIS	0.138 ± 0.021
LFFGLCFVFFGF	0.4582 ± 0.0013

Sequence	protein stability index
LFFLSASFFFFF	0.356 ± 0.067
LFFSPRRLSPPT	0.746 ± 0.022
LFIVTFIPVLFS	0.59 ± 0.08
LFMLHFLAVLRY	0.311 ± 0.011
LFSFVCLVFFLW	0.4178 ± 0.00065
LFSPLKGILSVM	0.5081 ± 0.0023
LFTTYVFLVFFQ	0.4367 ± 0.0009
LFVFTYPFLSWL	0.615 ± 0.0094
LFVMVSVSGLVV	0.235 ± 0.0073
LFVVHCFLSVSS	0.133 ± 0.029
LFWFRGTIVTPR	0.705 ± 0.018
LGCFGSSFVFCC	0.355 ± 0.0038
LGRVSAKFFCVL	0.246 ± 0.018
LGVCLFFVRCWS	0.271 ± 0.034
LIFRLCVCGVFW	0.376 ± 0.009
LILRVLFLFEPC	0.481 ± 0.0066
LIRLCVAPMVCR	0.485 ± 0.011
LKKTLNGRRKMI	0.373 ± 0.02
LLASFWKFIVNI	0.166 ± 0.011
LLAWLHTVQRVG	0.493 ± 0.013
LLFLVCFFPSIS	0.52 ± 0.036
LLFYSYFFFVLY	0.286 ± 0.023
LLGGRVLWAWRV	0.3907 ± 0.0025
LLLLFPSPLFIR	0.272 ± 0.02
LLLRQVFSLGVF	0.312 ± 0.021
LLLVSLAVPLSL	0.539 ± 0.0084

Each sequence was assayed on Saccharomyces cerevisiae in the same assay as above. Details: genetic background: wild type; temperature: 30 C.

Sequence	protein stability index
HINRTIWARYQV	0.362 ± 0.071
HLGNTMIKKLIG	0.516 ± 0.023
HLYPFPSLHFAF	0.799 ± 0.1
HNQDKNVKYKIG	0.41 ± 0.037
HRDVISVVRNMS	0.43 ± 0.027
HRHCVSSYQKVS	0.401 ± 0.054
HRNILSIIIKNL	0.109 ± 0.046
ICTHPCLRLRLN	0.165 ± 0.0032
IDLISRVTVVAR	0.4 ± 0.0047
IDLVAFCTIFAL	0.3975 ± 0.0032
IERGLMLTLCVH	0.22 ± 0.014
IERLRLRTRIIC	0.2349 ± 0.0012
IFIVLDFRCVSS	0.339 ± 0.016
IFLLFPFSWRIF	0.446 ± 0.034
IFLLLRRIIALS	0.107 ± 0.12
IFPSRSLLAASA	0.446 ± 0.0097
IFSFRWVLPFWL	0.365 ± 0.098
IHCLSIVVHGLS	0.499 ± 0.043
IHIFIIFRVQWK	0.227 ± 0.012
IHRSPLTLPLLV	0.468 ± 0.08
IIFCVRVVGGDL	0.46 ± 0.04
IIIRVTILCEQF	0.241 ± 0.0066
IILAIRLLVDTL	0.248 ± 0.021
IILRPQYVHYFL	0.454 ± 0.018
IIVLNIGSVIFC	0.4951 ± 0.0022
IKSLLGCWHKHY	0.479 ± 0.018

Sequence	protein stability index
ILCVEFFVSVSV	0.218 ± 0.0027
ILFVCVCVLHVG	0.242 ± 0.025
INKRDARIHLLM	0.47 ± 0.0047
IPHLNCCCCLVR	0.442 ± 0.052
IRDGPWKRVLVV	0.348 ± 0.051
IRVLACFLFAVS	0.17 ± 0.01
IVFGWGVEWGRL	0.69 ± 0.28
IVLCVFTVDSDF	0.407 ± 0.0073
IVSFRLDLSLAV	0.534 ± 0.051
IVWVSSFVCRSV	0.43 ± 0.044
IWVVIISDSRVG	0.352 ± 0.0071
IWVWMLSVWLGG	0.349 ± 0.013
IYFFVLRLRLCG	0.233 ± 0.1
KIHILVVQIATR	0.0736 ± 0.038
KKNITRLKNKMT	0.416 ± 0.14
KLLISLTWFCVL	0.284 ± 0.092
KLRMGRYIVRII	0.259 ± 0.0076
KVFWRPAWVAEV	0.371 ± 0.026
LAVFSSPELSFP	0.756 ± 0.024
LCFTSVFTLFIC	0.101 ± 0.024
LCLLPVCLWDVG	0.461 ± 0.023
LCSCAVVICCSL	0.377 ± 0.04
LCSVWVGIVLLC	0.165 ± 0.047
LDLSSLRCRYLL	0.343 ± 0.099
LDTTSRSRAKIS	0.164 ± 0.032
LFFGLCFVFFGF	0.378 ± 0.046

Sequence	protein stability index
LFFLSASFFFFF	0.289 ± 0.0064
LFFSPRRLSPPT	0.748 ± 0.011
LFIVTFIPVLFS	0.494 ± 0.0074
LFMLHFLAVLRY	0.308 ± 0.099
LFSFVCLVFFLW	0.38 ± 0.07
LFSPLKGILSVM	0.448 ± 0.018
LFTTYVFLVFFQ	0.372 ± 0.012
LFVFTYPFLSWL	0.478 ± 0.0061
LFVMVSVSGLVV	0.261 ± 0.017
LFVVHCFLSVSS	0.109 ± 0.039
LFWFRGTIVTPR	0.693 ± 0.034
LGCFGSSFVFCC	0.23 ± 0.016
LGRVSAKFFCVL	0.239 ± 0.022
LGVCLFFVRCWS	0.174 ± 0.047
LIFRLCVCGVFW	0.4101 ± 0.00073
LILRVLFLFEPC	0.42 ± 0.025
LIRLCVAPMVCR	0.438 ± 0.015
LKKTLNGRRKMI	0.416 ± 0.037
LLASFWKFIVNI	0.23 ± 0.016
LLAWLHTVQRVG	0.339 ± 0.011
LLFLVCFFPSIS	0.454 ± 0.05
LLFYSYFFFVLY	0.265 ± 0.0037
LLGGRVLWAWRV	0.376 ± 0.022
LLLLFPSPLFIR	0.281 ± 0.05
LLLRQVFSLGVF	0.162 ± 0.0081
LLLVSLAVPLSL	0.509 ± 0.022
